Assays:
[1] = molecular target: HA-DPP6K (mouse dipeptidyl peptidase-like protein 6, N-terminal variant K, HA-tagged) (mouse); assay: co-IP; DPP6 and TASK-3 co-expressed with one of them HA-tagged; membrane fraction solubilised in TNE buffer (50 mM TRIS, 150 mM NaCl, 1 mM EDTA, pH 7.4, 1% Triton X-100), precleared with mouse IgG agarose, incubated 16 h at 4°C with anti-HA agarose (clone HA-7); Western blot with anti-DPP6 or anti-KCNK9; Co-IP ratio = fraction precipitated indirectly when untagged divided by fraction precipitated directly when tagged
[2] = molecular target: HA-mKCNK9 (mouse TASK-3, HA-tagged) (mouse) (UniProt Q3LS21); assay: as above
[3] = molecular target: Mouse TASK-3 (mKCNK9), untagged (mouse) (UniProt Q3LS21)

Row | Co-IP ratio (percent of the protein that could be directly precipitated) [1] | Co-IP ratio (percent of the protein that could be directly precipitated) [2] | resting membrane conductance of CHO-K1 cells co-expressing DPP6 with TASK-3, against TASK-3 alone (voltage clamp) [3] | Substance
1 | 31.4% | – | – | Mouse TASK-3 (mKCNK9), untagged (from UniProt Q3LS21 1-402) (natural protein)
2 | – | 31.4% | 2.3 fold | DPP6K (mouse dipeptidyl peptidase-like protein 6, N-terminal variant K), untagged (natural protein)
